Measured values: PMC11148069 (2024)

How the values were obtained:
xNup93-Nb1t = experiment: BLI
xhNup93-Nb3t = experiment: BLI

Kd (xNup93-Nb1t): 0.1 nM
Kd (xhNup93-Nb3t): < 0.01 nM
B1: recombinant Xenopus Nup93 target (BLI) (natural protein)
chain: MDGEGFGELLQQAEQLAAETEGVTELPHVERNLQEIQQAGERLRSKTMTRTSQESANVKASVLLGSRGLDISHISQRLESLSAATTFEPLEPVKDTDIQGFLKNEKDNALLSAIEESRKRTFVMAEEYHRESMLVEWEQVKQRVLHTLLASGEDALDFTQESETSYISESGAPGRSSLDNVEMAYARQMYMYNEKVVSGHLQPSLVDLCTEAAERLDDKNVSDLWVMVKQMTDVPLIPASDTLKSRCSGQMQMAFVRQALNYLEQSYKNYTLISVFANLQQAQLGGVPGTYNLVRSFLNIRLPTPIPGLQDGEIEGYPVWALIYYCMRCGDLMAAQQVVNRAQHQLGDFKNCFQEYIHNKDRRLSPTTENKLRLHYRRAVRASTDPYKRAVYCIIGRCDVSDNHSEVADKTEDYLWLKLSQVCFEDEANSSPQDRLTLPQFQKQLFEDYGESHFAVNQQPYLYFQVLFLTAQFEAAIAFLFRLERTRCHAVHVALALFELKLLLKSTGQSAQLLSQEPGEPQGVRRLNFIRLLMLYTRKFEPTDPREALQYFYFLRNEKDNQGESMFLRCVSELVIESREFDMLLGKLEKDGSRKPGAIDKFTRDTKTIINKVASVAENKGLFEEAAKLYDLAKNPDKVLELTNKLLSPVVSQISAPQSNRERLKNMALAIAERYKSQGVSAEKSINSTFYLLLDLITFFDEYHAGHIDLSFDVIERLKLVPLSQDSVEERVAAFRNFSDEIRHNLSEILLATMNILFTQYKRLKGSGPTTLGRPQRVQEDKDSVLRSQARALITFAGMIPYRMSGDTNARLVQMEVLMN
